Values of other authors, collected in patent US12258594B2, “Cas proteins with reduced immunogenicity and methods of screening thereof” (THE BROAD INSTITUTE, INC., priority 2018, dated 2025).
Residue numbers refer to the chain shown, from its start. Names may count otherwise.

What was measured:
target RNA = conditions: for crRNA-guided target RNA cleavage activity: LbuCas13a alanine mutants; for cleavage of target and non-target ssRNA substrate: LbuCas13a HEPN mutants
target DNA = conditions: SaCas9 mutants

B1: Lys718Ala: Lys718Ala mutant of LbuCas13a (protein, UniProt C7NBY4 1-1159, looked up, variant K718A)
CRISPR-associated …: MKVTKVGGISHKKYTSEGRLVKSESEENRTDERLSALLNMRLDMYIKNPSSTETKENQKRIGKLKKFFSNKMVYLKDNTLSLKNGKKENIDREYSETDILESDVRDKKNFAVLKKIYLNENVNSEELEVFRNDIKKKLNKINSLKYSFEKNKANYQKINENNIEKVEGKSKRNIIYDYYRESAKRDAYVSNVKEAFDKLYKEEDIAKLVLEIENLTKLEKYKIREFYHEIIGRKNDKENFAKIIYEEIQNVNNMKELIEKVPDMSELKKSQVFYKYYLDKEELNDKNIKYAFCHFVEIEMSQLLKNYVYKRLSNISNDKIKRIFEYQNLKKLIENKLLNKLDTYVRNCGKYNYYLQDGEIATSDFIARNRQNEAFLRNIIGVSSVAYFSLRNILETENENDITGRMRGKTVKNNKGEEKYVSGEVDKIYNENKKNEVKENLKMFYSYDFNMDNKNEIEDFFANIDEAISSIRHGIVHFNLELEGKDIFAFKNIAPSEISKKMFQNEINEKKLKLKIFRQLNSANVFRYLEKYKILNYLKRTRFEFVNKNIPFVPSFTKLYSRIDDLKNSLGIYWKTPKTNDDNKTKEIIDAQIYLLKNIYYGEFLNYFMSNNGNFFEISKEIIELNKNDKRNLKTGFYKLQKFEDIQEKIPKEYLANIQSLYMINAGNQDEEEKDTYIDFIQKIFLKGFMTYLANNGRLSLIYIGSDEETNTSLAEKAQEFDKFLKKYEQNNNIKIPYEINEFLREIKLGNILKYTERLNMFYLILKLLNHKELTNLKGSLEKYQSANKEEAFSDQLELINLLNLDNNRVTEDFELEADEIGKFLDFNGNKVKDNKELKKFDTNKIYFDGENIIKHRAFYNIKKYGMLNLLEKIADKAGYKISIEELKKYSNKKNEIEKNHKMQENLHRKYARPRKDEKFTDEDYESYKQAIENIEEYTHLKNKVEFNELNLLQGLLLRILHRLVGYTSIWERDLRFRLKGEFPENQYIEEIFNFENKKNVKYKGGQIVEKYIKFYKELHQNDEVKINKYSSANIKVLKQEKKDLYIRNYIAHFNYIPHAEISLLEVLENLRKLLSYDRKLKNAVMKSVVDILKEYGFVATFKIGADKKIGIQTLESEKIVHLKNLKKKKLMTDRNSEELCKLVKIMFEYKMEEKKSEN
Question: Which “crRNA-guided target RNA cleavage activity” value (target RNA) does the source give for B1 here?
Answer: reduced target RNA cleavage activity

B2: Phe995: LbuCas13a with Phe995 substituted with alanine (protein, UniProt C7NBY4 1-1159, looked up, variant F995A)
CRISPR-associated …: B1 CRISPR-associated … with A718K, F995A
Question: For B2, which “cleavage of target and non-target ssRNA substrate” value (target RNA) is on record?
Answer: significantly reduced the cleavage of both target and non-target ssRNA substrate

B3: Lys998: LbuCas13a with Lys998 substituted with alanine (protein, UniProt C7NBY4 1-1159, looked up, variant K998A)
CRISPR-associated …: B1 CRISPR-associated … with A718K, K998A
Question: Which “cleavage of target and non-target ssRNA substrate” value (target RNA) does the source give for B3 here?
Answer: significantly reduced the cleavage of both target and non-target ssRNA substrate

B4: Gln519Ala: Gln519Ala mutant of LbuCas13a (protein, UniProt C7NBY4 1-1159, looked up, variant Q519A)
CRISPR-associated …: B1 CRISPR-associated … with Q519A, A718K
Question: For B4, which “crRNA-guided target RNA cleavage activity” value (target RNA) is on record?
Answer: reduced cleavage activities

B5: Lys845Ala: Lys845Ala mutant of LbuCas13a (protein, UniProt C7NBY4 1-1159, looked up, variant K845A)
CRISPR-associated …: B1 CRISPR-associated … with A718K, K845A
Question: Which “crRNA-guided target RNA cleavage activity” value (target RNA) does the source give for B5 here?
Answer: reduced target RNA cleavage activity

B6: His473: LbuCas13a with His473 substituted with alanine (protein, UniProt C7NBY4 1-1159, looked up, variant H473A)
CRISPR-associated …: B1 CRISPR-associated … with H473A, A718K
Question: For B6, which “cleavage of target and non-target ssRNA substrate” value (target RNA) is on record?
Answer: significantly reduced the cleavage of both target and non-target ssRNA substrate

B7: Asn997: LbuCas13a with Asn997 substituted with alanine (protein, UniProt C7NBY4 1-1159, looked up, variant N997A)
CRISPR-associated …: B1 CRISPR-associated … with A718K, N997A
Question: With B7 as the molecule, how does the “cleavage of target and non-target ssRNA substrate” value (target RNA) read?
Answer: significantly reduced the cleavage of both target and non-target ssRNA substrate

B8: Arg1135Ala: Arg1135Ala mutant of LbuCas13a (protein, UniProt C7NBY4 1-1159, looked up, variant R1135A)
CRISPR-associated …: B1 CRISPR-associated … with A718K, R1135A
Question: With B8 as the molecule, how does the “crRNA-guided target RNA cleavage activity” value (target RNA) read?
Answer: reduced cleavage activities

B9: SaCas9 T787A: T787A mutant of SaCas9 (protein, UniProt J7RUA5 1-1053, looked up, variant T787A)
CRISPR-associated …: MKRNYILGLDIGITSVGYGIIDYETRDVIDAGVRLFKEANVENNEGRRSKRGARRLKRRRRHRIQRVKKLLFDYNLLTDHSELSGINPYEARVKGLSQKLSEEEFSAALLHLAKRRGVHNVNEVEEDTGNELSTKEQISRNSKALEEKYVAELQLERLKKDGEVRGSINRFKTSDYVKEAKQLLKVQKAYHQLDQSFIDTYIDLLETRRTYYEGPGEGSPFGWKDIKEWYEMLMGHCTYFPEELRSVKYAYNADLYNALNDLNNLVITRDENEKLEYYEKFQIIENVFKQKKKPTLKQIAKEILVNEEDIKGYRVTSTGKPEFTNLKVYHDIKDITARKEIIENAELLDQIAKILTIYQSSEDIQEELTNLNSELTQEEIEQISNLKGYTGTHNLSLKAINLILDELWHTNDNQIAIFNRLKLVPKKVDLSQQKEIPTTLVDDFILSPVVKRSFIQSIKVINAIIKKYGLPNDIIIELAREKNSKDAQKMINEMQKRNRQTNERIEEIIRTTGKENAKYLIEKIKLHDMQEGKCLYSLEAIPLEDLLNNPFNYEVDHIIPRSVSFDNSFNNKVLVKQEENSKKGNRTPFQYLSSSDSKISYETFKKHILNLAKGKGRISKTKKEYLLEERDINRFSVQKDFINRNLVDTRYATRGLMNLLRSYFRVNNLDVKVKSINGGFTSFLRRKWKFKKERNKGYKHHAEDALIIANADFIFKEWKKLDKAKKVMENQMFEEKQAESMPEIETEQEYKEIFITPHQIKHIKDFKDYKYSHRVDKKPNRELINDALYSTRKDDKGNTLIVNNLNGLYDKDNDKLKKLINKSPEKLLMYHHDPQTYQKLKLIMEQYGDEKNPLYKYYEETGNYLTKYSKKDNGPVIKKIKYYGNKLNAHLDITDDYPNSRNKVVKLSLKPYRFDVYLDNGVYKFVTVKNLDVIKKENYYEVNSKCYEEAKKLKKISNQAEFIASFYNNDLIKINGELYRVIGVNNDLLNRIEVNMIDITYREYLENMNDKRPPRIIKTIASKTQSIKKYSTDILGNLYEVKSKKHPQIIKKG
Question: Which DNA cleavage activity (target DNA) does the source give for B9 here?
Answer: reduced DNA cleavage activity

B10: E477A: E477A mutant of SaCas9 (protein, UniProt J7RUA5 1-1053, looked up, variant E477A)
CRISPR-associated …: B9 CRISPR-associated … with E477A, A787T
Question: Which DNA cleavage activity (target DNA) does the source give for B10 here?
Answer: almost no DNA cleavage activity

B11: D704A: D704A mutant of SaCas9 (protein, UniProt J7RUA5 1-1053, looked up, variant D704A)
CRISPR-associated …: B9 CRISPR-associated … with D704A, A787T
Question: Which DNA cleavage activity (target DNA) does the source give for B11 here?
Answer: almost no DNA cleavage activity

B12: H557A: H557A mutant of SaCas9 (protein, UniProt J7RUA5 1-1053, looked up, variant H557A)
CRISPR-associated …: B9 CRISPR-associated … with H557A, A787T
Question: For B12, which DNA cleavage activity (target DNA) is on record?
Answer: almost completely lacked DNA cleavage activity

B13: N580A: N580A mutant of SaCas9 (protein, UniProt J7RUA5 1-1053, looked up, variant N580A)
CRISPR-associated …: B9 CRISPR-associated … with N580A, A787T
Question: Which DNA cleavage activity (target DNA) does the source give for B13 here?
Answer: almost completely lacked DNA cleavage activity

B14: D10A: D10A mutant of SaCas9 (protein, UniProt J7RUA5 1-1053, looked up, variant D10A)
CRISPR-associated …: B9 CRISPR-associated … with D10A, A787T
Question: With B14 as the molecule, how does the DNA cleavage activity (target DNA) read?
Answer: almost no DNA cleavage activity
